Values of other authors in patent US6844322B2, “Method for induced lactation” (Monsanto Technology LLC, priority 2000, dated 2005).

Test system: cows
Details: somatotropin included in the induction protocol (Kensinger et al., 1998)

B1: POSILAC® somatotropin: Sustained-release bovine somatotropin, Monsanto (protein, UniProt P01246 27-217, looked up)
Somatotropin: AFPAMSLSGLFANAVLRAQHLHQLAADTFKEFERTYIPEGQRYSIQNTQVAFCFSETIPAPTGKNEAQQKSDLELLRISLLLIQSWLGPLQFLSRVFTNSLVFGTSDRVYEKLKDLEEGILALMRELEDGTPRAGQILKQTYDKFDTNMRSDDALLKNYGLLSCFRKDLHKTETYLRVMKCRRFGEASCAF
modifications: sustained-release formulation
notes: Sustained-release bovine somatotropin, Monsanto
In the case of B1, the “increase in milk yield compared to cows treated with steroids alone” value is given as 17%.
